The chains are these.
B1: A1Y100B AlaL1 (antibody, human IgG1, kappa, V domains shown)
VH: QVQLVQSGAEVKKPGSSVKVSCKASGFYIKDTYMHWVRQAPGQGLEWMGTIDPANGNTKYVPKFQGRVTITADESTSTAYMELSSLRSEDTAVYYCARSIYDDYHADDYYAMDYWGQGTLVTVSS
VL: DIVMTQSPLSLPVTPGEPASISCRSSQNIVHINGNTYLEWYLQKPGQSPRLLIYKISDRFSGVPDRFSGSGSGTDFTLKISRVEADDVGIYYCFQGSHVPWTFGQGTKLEIKR
notes: CDRH3 variant of A1L1
B2: A1Y100B TrpL1 (antibody, human IgG1, kappa, V domains shown)
VH: B1 VH with A106W
VL: B1 VL
notes: CDRH3 variant of A1L1
B3: A1Y100B IleL1 (antibody, human IgG1, kappa, V domains shown)
VH: B1 VH with A106I
VL: B1 VL
notes: CDRH3 variant of A1L1
B4: BPC1624 (bispecific antibody, human IgG1, kappa)
heavy: not shown
light: DIVMTQSPLSLPVTPGEPASISCRSSQNIVHINGNTYLEWYLQKPGQSPRLLIYKISDRFSGVPDRFSGSGSGTDFTLKISRVEADDVGIYYCFQGSHVPWTFGQGTKLEIKRTVAAPSVFIFPPSDEQLKSGTASVVCLLNNFYPREAKVQWKVDNALQSGNSQESVTEQDSKDSTYSLSSTLTLSKADYEKHKVYACEVTHQGLSSPVTKSFNRGEC
B5: BPC1627 (bispecific antibody, human IgG1, kappa)
heavy: not shown
light: B4 light
B6: BPC1625 (bispecific antibody, human IgG1, kappa)
heavy: not shown
light: B4 light
B7: BPC1626 (bispecific antibody, human IgG1, kappa)
heavy: not shown
light: B4 light
B8: BPC3214 (bispecific antibody, human IgG1, kappa)
heavy: not shown
light: DIQMTQSPSSLSASVGDRVTITCRSSQNIVHINGNTYLEWYQQKPGKAPKLLIYKISDRFSGVPSRFSGSGSGTDFTLTISSLQPEDFATYYCFQGSHVPWTFGQGTKLEIKRTVAAPSVFIFPPSDEQLKSGTASVVCLLNNFYPREAKVQWKVDNALQSGNSQESVTEQDSKDSTYSLSSTLTLSKADYEKHKVYACEVTHQGLSSPVTKSFNRGEC
notes: mAbdAb with the re-humanised light chain P0
B9: BPC3215 (bispecific antibody, human IgG1, kappa)
heavy: not shown
light: B8 light with I2V, Q3L
notes: mAbdAb with the re-humanised light chain P1
B10: A1D98GluL1 (antibody, human IgG1, kappa, V domains shown)
VH: B1 VH with D102E, A106Y
VL: B1 VL
notes: CDRH3 variant of A1L1
B11: A1H100A SerL1 (antibody, human IgG1, kappa, V domains shown)
VH: B1 VH with H105S, A106Y
VL: B1 VL
notes: CDRH3 variant of A1L1
B12: A1H100A ArgL1 (antibody, human IgG1, kappa, V domains shown)
VH: B1 VH with H105R, A106Y
VL: B1 VL
notes: CDRH3 variant of A1L1
B13: A1H100A GluL1 (antibody, human IgG1, kappa, V domains shown)
VH: B1 VH with H105E, A106Y
VL: B1 VL
notes: CDRH3 variant of A1L1
B14: A1H100A ThrL1 (antibody, human IgG1, kappa, V domains shown)
VH: B1 VH with H105T, A106Y
VL: B1 VL
notes: CDRH3 variant of A1L1
B15: A1I96ValL1 (antibody, human IgG1, kappa, V domains shown)
VH: B1 VH with I100V, A106Y
VL: B1 VL
notes: CDRH3 variant of A1L1
B16: A1H100A ValL1 (antibody, human IgG1, kappa, V domains shown)
VH: B1 VH with H105V, A106Y
VL: B1 VL
notes: CDRH3 variant of A1L1
B17: A1Y97PheL1 (antibody, human IgG1, kappa, V domains shown)
VH: B1 VH with Y101F, A106Y
VL: B1 VL
notes: CDRH3 variant of A1L1
B18: A1H100A GlnL1 (antibody, human IgG1, kappa, V domains shown)
VH: B1 VH with H105Q, A106Y
VL: B1 VL
notes: CDRH3 variant of A1L1

Where a chain is given by its changes, count along the chain named.

T1 sequence (P35225 other isoform, or with tags, fused parts or gaps limits assumed): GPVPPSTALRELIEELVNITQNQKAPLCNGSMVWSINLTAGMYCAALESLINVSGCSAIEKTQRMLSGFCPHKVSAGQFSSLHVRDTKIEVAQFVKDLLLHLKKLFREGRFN

The first test concerns the target T1, human IL-13 (recombinant E. coli-expressed) (human, UniProt P35225 35-146). Briefly: cell-based or functional assay.
Turning to B1, the “ND50 (nM), TF-1 cell proliferation bioassay” value is 0.92 nM.
The same measure, in the same setting: in the case of B2 it was 1.25 nM; in that of B3, 1.1 nM.

In another test the target is T1, human IL-13 (recombinant E. …). Briefly: cell-based or functional assay. The source holds these as a separate data set.
For B4, the “ND50 human IL-13, TF-1 cell proliferation bioassay” value amounted to 0.553 nM.
B5: the “ND50 human IL-13, TF-1 cell proliferation bioassay” value was determined as 0.615 nM.
Take B6: the “ND50 human IL-13, TF-1 cell proliferation bioassay” value worked out at 0.542 nM.
B7: the “ND50 human IL-13, TF-1 cell proliferation bioassay” value worked out at 0.681 nM.

Another test has the same target. The experiment in a line: Biacore T100 SPR, Protein A capture (CM5), human IL13 analyte, 1:1 fit. On the procedure:
(§1) Protein A was immobilised on a CM5 chip by primary amine coupling; this surface was used as a capture surface for the antibody molecules to be tested. […] All binding curves were double referenced with a 0 nM injection (i.e. buffer alone).
(§2) Regeneration of the Protein A surface was with 50 mM NaOH. The assay was run at 25° C. using HBS-EP as running buffer. The data was fitted to 1:1 model inherent to the Biacore T100 analysis software.
Turning to B8, the equilibrium dissociation constant (Kd) – broadly, the constant that tells how readily two partners part at equilibrium – is 0.093 nM; the koff (as a rule, a measure of how fast the partners let go of each other) stood at 7.18e-05 s⁻¹; the association rate constant (kon) (usually a measure of how fast the partners come together) came to 775000 M⁻¹ s⁻¹.
With B9, the dissociation constant (Kd) stood at 0.064 nM, the koff was 5.23e-05 s⁻¹ and the kon is 822000 M⁻¹ s⁻¹.

The next test has the same target. Briefly: Biacore T100 SPR, purified mAb captured on anti-human IgG, IL13 analyte, 1:1 fit. From the text: (§3) Table 1 details the overall affinities (equilibrium dissociation constant KD) for the selected constructs from the ProteOn screen and the T100 run
A general note: SPR reads the build-up and loss of mass on a sensor chip optically.
With B1, the dissociation constant Kd was 0.031 nM, the koff was determined as 3e-05 s⁻¹ and the kon was 960000 M⁻¹ s⁻¹.
In the case of B2, the Kd came out at 0.063 nM, the koff worked out at 0.000163 s⁻¹ and the kon was found to be 2.57e+06 M⁻¹ s⁻¹.
Consider B3, for which the Kd was found to be 0.049 nM, the koff stood at 5.58e-05 s⁻¹ and the association rate constant (kon) amounted to 1.15e+06 M⁻¹ s⁻¹.

For a further test the target is unchanged. Described as above. The source holds these as a separate data set.
Text: as §3
Take B1: the Kd amounted to 0.032 nM, the koff is 2.58e-05 s⁻¹ and the kon is 810000 M⁻¹ s⁻¹.
Regarding B2, the Kd was found to be 0.053 nM, the off-rate (koff) is 0.000125 s⁻¹ and the kon amounted to 2.38e+06 M⁻¹ s⁻¹.
With B3, the Kd worked out at 0.043 nM, the koff was 4.21e-05 s⁻¹ and the kon is 989000 M⁻¹ s⁻¹.

The target is the same in the next test. The experiment in a line: Biacore T100 SPR, mAb (supernatant) captured on anti-human IgG, IL13 analyte, 1:1 fit.
Text: as §3
For the molecule B10, the Kd was determined as 0.779 nM.
On the same count and under the same terms, under B11 stands 0.174 nM; under B12, 0.307 nM.
Regarding B13, the Kd worked out at 0.195 nM.
Regarding B1, the Kd was determined as 0.083 nM.
As for B2, the Kd is 0.095 nM.
On the same count and under the same terms, under B3 stands 0.073 nM; under B14, 0.211 nM.
In the case of B15, the Kd is 0.696 nM.
B16: the Kd amounted to 0.152 nM.
Same read-out and setting: under B17 stands 0.618 nM; under B18, 0.278 nM.

Another test shares this target. Briefly: ProteOn XPR36 SPR, mAb (supernatant) captured on anti-human IgG, IL13 analyte, 1:1 fit. On the procedure: The initial screen of CDRH3 mutants was carried out on the ProteOn XPR36 (Biorad). […] 3M MgCl₂ was used to regenerate the capture surface, removing the bound CDRH3 mutant antibodies ready for another cycle of capture and analyte injection. The data was fitted to the 1:1 model using the software inherent to the machine.
In the case of B10, the Kd is 0.873 nM.
Take B11: the equilibrium dissociation constant (Kd) came to 0.131 nM.
In the case of B12, the Kd worked out at 0.256 nM.
On to B13, for which the Kd worked out at 0.11 nM.
For B1, the Kd stood at 0.075 nM.
For B2, the Kd is 0.068 nM.
With B3, the Kd was 0.075 nM.
B14: the Kd turned out to be 0.158 nM.
On to B15, for which the Kd was 0.395 nM.
For the molecule B16, the Kd was found to be 0.112 nM.
The same measure, in the same setting: in the case of B17 it was 0.683 nM.
In the case of B18, the Kd is 0.195 nM.

Another test addresses T2, cyno IL-13 (recombinant E. coli-expressed) (cynomolgus, UniProt Q0PW92 21-132).
T2 construct: also called cynomolgus IL-13
The experiment in a line: Biacore T100 SPR, Protein A capture (CM5), cyno IL13 analyte, 1:1 fit; 'Impossible off-rates'. On the procedure: as §1, §2
With B8, the Kd was less than 0.0311 nM, the koff was less than 1e-05 s⁻¹ and the kon was found to be 321000 M⁻¹ s⁻¹.
On to B9, for which the Kd is 0.00955 nM, the koff was found to be 3.13e-06 s⁻¹ and the kon is 328000 M⁻¹ s⁻¹.
